According to patent US20220251236A1 (Boehringer Ingelheim, published 2022):
Substitutions are numbered along the chain they refer to.

T1: Human DLL3-His (human, UniProt Q9NYJ7 27-492)
T1 construct: also called huDLL3-His; hu DLL3
T1 sequence: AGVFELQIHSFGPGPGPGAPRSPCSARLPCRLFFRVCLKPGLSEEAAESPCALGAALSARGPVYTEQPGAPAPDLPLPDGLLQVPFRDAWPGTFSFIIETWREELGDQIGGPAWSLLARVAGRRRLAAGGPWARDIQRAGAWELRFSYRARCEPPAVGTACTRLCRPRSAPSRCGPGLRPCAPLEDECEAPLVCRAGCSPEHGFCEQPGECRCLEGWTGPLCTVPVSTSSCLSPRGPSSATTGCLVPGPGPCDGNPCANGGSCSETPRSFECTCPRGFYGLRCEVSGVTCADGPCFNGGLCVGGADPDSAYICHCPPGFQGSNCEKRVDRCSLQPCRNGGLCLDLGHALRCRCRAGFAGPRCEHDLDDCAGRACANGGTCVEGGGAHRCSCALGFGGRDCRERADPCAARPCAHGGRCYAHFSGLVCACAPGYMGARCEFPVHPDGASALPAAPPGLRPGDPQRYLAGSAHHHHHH

T2: human DLL3 (endogenous, on SCLC cell lines NCI-H82 and SHP77 and in SCLC tissue) (human, UniProt Q9NYJ7 27-618)
T2 construct: whole, on cells; also called SCLC cell lines expressing DLL3
T2 sequence (looked up): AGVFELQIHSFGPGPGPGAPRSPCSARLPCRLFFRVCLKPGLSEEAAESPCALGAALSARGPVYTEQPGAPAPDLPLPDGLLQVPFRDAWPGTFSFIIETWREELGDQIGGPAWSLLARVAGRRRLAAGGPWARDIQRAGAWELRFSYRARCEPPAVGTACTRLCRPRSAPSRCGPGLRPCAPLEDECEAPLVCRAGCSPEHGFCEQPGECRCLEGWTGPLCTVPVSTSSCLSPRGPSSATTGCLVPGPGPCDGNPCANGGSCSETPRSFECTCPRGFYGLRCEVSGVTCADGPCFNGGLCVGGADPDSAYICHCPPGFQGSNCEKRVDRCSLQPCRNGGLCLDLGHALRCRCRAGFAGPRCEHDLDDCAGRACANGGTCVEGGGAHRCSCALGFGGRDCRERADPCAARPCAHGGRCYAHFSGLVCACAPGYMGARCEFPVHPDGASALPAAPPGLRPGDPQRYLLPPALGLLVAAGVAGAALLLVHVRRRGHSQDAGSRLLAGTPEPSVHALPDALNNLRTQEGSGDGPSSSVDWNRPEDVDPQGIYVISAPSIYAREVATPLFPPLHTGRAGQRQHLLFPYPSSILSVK

B1: anti-DLL3 antibody DLL3#3 (antibody, V domains shown)
VH: QVQLVQSGAEVKKPGASVKVSCKASGYTFTSYYVHWVRQAPGQGLEWMVIINPGGGTTSYAQKFLGRVTMTRDTSTNTVYMELKSLRSEDTAVYYCARGEAVTGNYFYYGMDVWGQGTTVTVSS
VL: DIQMTQSPSAMSASVGDRVTITCRASQGISNYLVWFQQKPGKAPKRLIYAVSSLYSGVPSRFSGSGSGTEFTLTISSLQPEDFATYYCLQHDSYPYTFGQGTKLEIK
notes: detected with anti-mouse secondary antibody
B2: anti-DLL3 antibody DLL3#4 (antibody, V domains shown)
VH: QVQLQQSGTELVKPGASVKLSCKASVYTFTSYFMYWVKQRPGHGLEWIGEISPTNGNSNLNERFKNKATLTVDKSSSTAYMQLSSLTSEDSAVYYCTRGGDGYLDYWGQGTTLTVSS
VL: DIVLTQSPASLAVSLGQRATISCRASKSVSSFGYSFMHWYQQKPGQPPKLLIYLASNLESGVPARFSGSGSGTDFTLNIHPVEEEDAATYYCQHSRELPWTFGGGTKLEIK
notes: as for B1
B3: anti-DLL3 antibody DLL3#5 (antibody, V domains shown)
VH: QVQLVQSGAEVKKPGASVKVSCKASGFTFTGYYIHWVRQAPGQGLEWMGWINPNSGGTNYAQKFQGRVTMTRDSSINTAFMELSRLTSDDTAVYYCAAGWDYWGQGTLVTVSS
VL: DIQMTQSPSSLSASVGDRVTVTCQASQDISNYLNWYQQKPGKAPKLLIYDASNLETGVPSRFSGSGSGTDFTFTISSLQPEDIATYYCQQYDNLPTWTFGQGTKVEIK
notes: detected with anti-mouse reagents
B4: anti-DLL3 antibody DLL3#2 (antibody, V domains shown)
VH: B1 VH with V34M, V49G, G54S, T57S, L65Q, N77S, K84S, T103G, F107Y
VL: B1 VL with V34A, A43V, K45E, R46P, V51A, Y55Q, G68V, D92N, Y94S
notes: as for B1
B5: anti-DLL3 antibody DLL3#6 (antibody, V domains shown)
VH: QVQLQESGPGLVKPSETLSLTCTVSGGSISSYFWSWIRQPAGKGLEWIGRIYTSGSTNYNPSLNSRLTMSVDTSKNQFSLKLSSVTAADTAVYYCARRGDWGGFDIWGQGTVVTVSS
VL: DIQLTQSPSFLSTSVGDRVTITCRASQDISNYFAWYQQKPGKAPKLLIYAASTLQSGVPSRFSGGGSGTEFTLTISSLQPEDFATYYCQQLNSYPYTFGQGTKLEIK
notes: as for B1

Legend:
Human DLL3-His = target: T1, Human DLL3-His; experiment: sandwich ELISA with ECL readout (MSD): anti-DLL3 antibody coated, recombinant DLL3 protein titrated; the concentration is that of DLL3 protein
Method: Binding of antibodies was performed in an ELISA. In brief, anti-DLL3 antibodies were coated at a concentration of […] at 4° C. over night. After washing the plates were blocked with blocking buffer (Gibco, Gibco #043-90309A) for one hour at room temperature, followed by washing and incubation with recombinant DLL3 protein at increasing concentrations. For detection the bound DLL3 protein was incubated with a polyclonal anti-DLL3 antibody (R&D Systems, AB4315) followed by a SULFO-TAG labelled anti-goat antibody (R32AG-1) for one hour. The bound antibody was quantified by using a Read Buffer (MSD) in a Sector imager 6000 (MSD).

[1] = target: T2, human DLL3 (endogenous, on SCLC cell …); experiment: flow cytometry on a DLL3-positive SCLC cell line (not named on the sheet), PE-conjugated anti-mouse secondary antibody
Excerpt: Cells (T cells or human SCLC cells) were stained with increasing concentrations of anti-DLL3 antibody with increasing concentrations in FACS buffer (PBS/0.5% BSA/0.05% sodium azide).

Row | Binder | EC50 (read off the curve) (Human DLL3-His) [ng/mL] | EC50 (read off the curve) [1] [nM] | binding result [1]
1 | B1 | ~10 |  | 
2 | B2 | ~20 | ~0.1 | 
3 | B3 | ~10 | ~0.5 | 
4 | B4 |  |  | binds
5 | B5 |  | ~0.4 | 
